B1: human Notch-1 EGF domains 11-13 (N-1_(11-13)) with C-terminal BirA-tag, biotinylated (domain or fragment)
chain: QDVDECSLGANPCEHAGKCINTLGSFECQCLQGYTGPRCEIDVNECVSNPCQNDATCLDQIGEFQCICMPGYEGVHCEVNTDECASSPCLHNGRCLDKINEFQCECPTGFTGHLCQ
modifications: biotin on the C-terminal tag
B2: human Notch-1 EGF domains 11-13 (N-1_(11-13)) without the BirA-tag (domain or fragment)
chain: B1 chain

Columns and labels:
[1] = target: T1, human Jagged-1 DSL-EGF3 fragment (J-1_(DSL-EGF3)), His-tagged, wild type (human, UniProt P78504 187-335); assay: pull-down
T1 sequence (P78504 187-335): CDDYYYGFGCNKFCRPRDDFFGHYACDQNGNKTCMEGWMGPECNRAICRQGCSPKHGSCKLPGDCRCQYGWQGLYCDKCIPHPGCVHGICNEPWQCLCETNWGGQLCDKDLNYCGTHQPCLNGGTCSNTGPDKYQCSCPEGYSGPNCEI

[2] = target: T1, human Jagged-1 DSL-EGF3 fragment …; assay: SPR

| Binder | binding result [1] | binding result [2] |
| --- | --- | --- |
| B1 | binds | – |
| B2 | – | binds |
